The values below come from article PMC11334519.

The target of assay [1] is 3×FLAG-ORF66. In words: pull-down.
Assay [2] deals with 6×Myc-tagged ORF24 BD [1–400 aa]. As to the kind of experiment: pull-down.
[3] abbreviates: 293T cells cotransfected, lysates pulled down with S-protein-agarose capturing 2×S-ORF34, parent: 1.00.

For the substance 2×S-tagged KSHV ORF34 WT C170A, the ratio to parent in assay [1] (setting [3]) was 0.05; in assay [1] (parent: 1.000), 0.057; in assay [2] (setting [3]), 0.32; in assay [2] (parent: 1.000) it was 0.325.
Taken in the same sequence, the figures for 2×S-tagged KSHV ORF34 WT C175A were 0.04, 0.039, 0.34 and 0.345.
2×S-tagged KSHV ORF34 WT C256A: the ratio to parent came to 0.11 in assay [2] (setting [3]) and 0.109 in assay [2] (parent: 1.000).
Taken in the same sequence, the figures for 2×S-tagged KSHV ORF34 WT C259A were 0.03 and 0.027.
Consider 2×S-tagged KSHV ORF34 WT D154A, for which the ratio to parent in assay [1] (setting [3]) was 0.28; in assay [1] (parent: 1.000) it was 0.282; in assay [2] (setting [3]), 0.51; in assay [2] (parent: 1.000), 0.512.
With 2×S-tagged KSHV ORF34 WT E41A; T42A, the ratio to parent in assay [1] (setting [3]) is 1.03; in assay [1] (parent: 1.000), 1.03; in assay [2] (setting [3]), 0.88; in assay [2] (parent: 1.000), 0.877.
Regarding 2×S-tagged KSHV ORF34 WT F47A, the ratio to parent was 1.09 in assay [1] (setting [3]), 1.09 in assay [1] (parent: 1.000), 0.86 in assay [2] (setting [3]) and 0.859 in assay [2] (parent: 1.000).
Consider 2×S-tagged KSHV ORF34 WT G165A, for which the ratio to parent in assay [1] (setting [3]) worked out at 0.02; in assay [1] (parent: 1.000) it was 0.022; in assay [2] (setting [3]), 0.68; in assay [2] (parent: 1.000) it was 0.68.
With 2×S-tagged KSHV ORF34 WT G182A, the ratio to parent in assay [1] (setting [3]) worked out at 0.36; in assay [1] (parent: 1.000), 0.359; in assay [2] (setting [3]) it was 1.28; in assay [2] (parent: 1.000), 1.29.
For 2×S-tagged KSHV ORF34 WT L188A; L189A, the figures for the ratio to parent in assay [2] (setting [3]) and in assay [2] (parent: 1.000) were 0.5 and 0.503, respectively.
Taken in the same sequence, the figures for 2×S-tagged KSHV ORF34 WT Q264A; N265A were 0.67 and 0.665.
As for 2×S-tagged KSHV ORF34 WT R234A, the ratio to parent stood at 0.77 in assay [1] (setting [3]), 0.775 in assay [1] (parent: 1.000), 0.74 in assay [2] (setting [3]) and 0.74 in assay [2] (parent: 1.000).
On to 2×S-tagged KSHV ORF34 WT S168A, for which the ratio to parent in assay [1] (setting [3]) amounted to 0.97; in assay [1] (parent: 1.000), 0.969; in assay [2] (setting [3]), 0.94; in assay [2] (parent: 1.000), 0.94.
Consider 2×S-tagged KSHV ORF34 WT V50A, for which the ratio to parent in assay [1] (setting [3]) turned out to be 1.11; in assay [1] (parent: 1.000), 1.11; in assay [2] (setting [3]) it was 0.86; in assay [2] (parent: 1.000) it was 0.861.
For the substance 2×S-tagged KSHV ORF34 WT W160A, the ratio to parent in assay [1] (setting [3]) was found to be 0.29; in assay [1] (parent: 1.000) it was 0.289; in assay [2] (setting [3]) it was 0.47; in assay [2] (parent: 1.000), 0.473.
The like results for 2×S-tagged KSHV ORF34 WT Y194A were, in that order, 0.003, 0.003, 0.64 and 0.645.
The like results for 2×S-tagged KSHV ORF34 WT Y215A were, in that order, 0.16, 0.167, 1.02 and 1.02.
Taken in the same sequence, the figures for 2×S-tagged KSHV ORF34 WT Y310A were 0.17, 0.173, 0.96 and 0.956.
